The nature of the data set: melting temperature; melt of duplexes. To be noted: sodium 0.0675 M; strand 1 µM.
For “CGACGTGCTCCATGTGCTG+CAGCACATCGGGCACGTCG ((((((((.(.((((((((+)))))))).).))))))))”, the melting temperature (Tm) came to 51.2 °C. As for “CGACGTGCCGAATGTGCTG+CAGCACATTAGGCACGTCG (((((((((.(((((((((+))))))))).)))))))))”, the midpoint of thermal melting (Tm) is 59.6 °C.

“CGACGTGCAAGATGTGCTG+CAGCACATATCGCACGTCG ((((((((.(.((((((((+)))))))).).))))))))”: the midpoint of thermal melting (Tm) turned out to be 50.3 °C. Then “CGACGTGCTTTATGTGCTG+CAGCACATGGGGCACGTCG ((((((((...((((((((+))))))))...))))))))”, with 51 °C; and “CGACGTGCAAAATGTGCTG+CAGCACATCATGCACGTCG (((((((((..((((((((+))))))))..)))))))))”, with 49.9 °C. In the case of “CGACGTGCTGCATGTGCTG+CAGCACATGGCGCACGTCG ((((((((..(((((((((+)))))))))..))))))))” it was 55.3 °C; in that of “CGACGTGCCGGATGTGCTG+CAGCACATAAAGCACGTCG ((((((((...((((((((+))))))))...))))))))”, 50.2 °C. Take “CGACGTGCGCTATGTGCTG+CAGCACATCCTGCACGTCG ((((((((...((((((((+))))))))...))))))))”: the midpoint of thermal melting (Tm) worked out at 48.1 °C. In the case of “CGACGTGCCTAATGTGCTG+CAGCACATTTCGCACGTCG ((((((((..(((((((((+)))))))))..))))))))” it was 50.5 °C; in that of “CGACGTGCTAGATGTGCTG+CAGCACATTCGGCACGTCG ((((((((...((((((((+))))))))...))))))))”, 52.1 °C; in that of “CGACGTGCCTTATGTGCTG+CAGCACATAATGCACGTCG ((((((((.((((((((((+)))))))))).))))))))”, 53.7 °C. Then “CGACGTGCTTCATGTGCTG+CAGCACATACGGCACGTCG ((((((((...((((((((+))))))))...))))))))”, with 47.7 °C. With “CGACGTGCGATATGTGCTG+CAGCACATCATGCACGTCG ((((((((...((((((((+))))))))...))))))))”, the melting temperature (Tm) was 50.1 °C.

Regarding “CGACGTGCTACATGTGCTG+CAGCACATCGTGCACGTCG ((((((((...((((((((+))))))))...))))))))”, the Tm is 46.6 °C. Then “CGACGTGCTATATGTGCTG+CAGCACATCGCGCACGTCG ((((((((...((((((((+))))))))...))))))))”, with 46.6 °C; and “CGACGTGCAACATGTGCTG+CAGCACATACTGCACGTCG (((((((((..((((((((+))))))))..)))))))))”, with 49.8 °C; and “CGACGTGCTATATGTGCTG+CAGCACATCCTGCACGTCG ((((((((...((((((((+))))))))...))))))))”, with 48.3 °C. In the case of “CGACGTGCTATATGTGCTG+CAGCACATATCGCACGTCG ((((((((.((((((((((+)))))))))).))))))))” it was 54.9 °C; in that of “CGACGTGCTAAATGTGCTG+CAGCACATGAAGCACGTCG (((((((((..((((((((+))))))))..)))))))))”, 54.6 °C.

For “CGACGTGCGCGATGTGCTG+CAGCACATCCTGCACGTCG ((((((((..(((((((((+)))))))))..))))))))”, the melting temperature (Tm) is 54.4 °C. Then “CGACGTGCTAGATGTGCTG+CAGCACATCCGGCACGTCG ((((((((..(((((((((+)))))))))..))))))))”, with 55.4 °C. Then “CGACGTGCCGTATGTGCTG+CAGCACATAACGCACGTCG ((((((((..(((((((((+)))))))))..))))))))”, with 52.6 °C; and “CGACGTGCTACATGTGCTG+CAGCACATGCGGCACGTCG ((((((((..(((((((((+)))))))))..))))))))”, with 54.1 °C. Then “CGACGTGCGCGATGTGCTG+CAGCACATTACGCACGTCG (((((((((..((((((((+))))))))..)))))))))”, with 54.9 °C; and “CGACGTGCGTCATGTGCTG+CAGCACATCTCGCACGTCG (((((((((..((((((((+))))))))..)))))))))”, with 52.4 °C; and “CGACGTGCCGGATGTGCTG+CAGCACATCTCGCACGTCG ((((((((..(((((((((+)))))))))..))))))))”, with 54.1 °C. Regarding “CGACGTGCCGTATGTGCTG+CAGCACATTATGCACGTCG ((((((((...((((((((+))))))))...))))))))”, the melting temperature (Tm) turned out to be 48.6 °C.

Consider “CGACGTGCGTCATGTGCTG+CAGCACATAACGCACGTCG ((((((((((.((((((((+)))))))).))))))))))”, for which the Tm is 58 °C. In the case of “CGACGTGCCTCATGTGCTG+CAGCACATACGGCACGTCG (((((((((..((((((((+))))))))..)))))))))” it was 52.4 °C; in that of “CGACGTGCGAGATGTGCTG+CAGCACATGATGCACGTCG ((((((((...((((((((+))))))))...))))))))”, 53.2 °C; in that of “CGACGTGCCGCATGTGCTG+CAGCACATTCAGCACGTCG ((((((((.(.((((((((+)))))))).).))))))))”, 48.9 °C. Then “CGACGTGCTGAATGTGCTG+CAGCACATGCTGCACGTCG ((((((((.(.((((((((+)))))))).).))))))))”, with 53.5 °C. Then “CGACGTGCCTAATGTGCTG+CAGCACATCAGGCACGTCG ((((((((((.((((((((+)))))))).))))))))))”, with 56.3 °C; and “CGACGTGCTGCATGTGCTG+CAGCACATTGTGCACGTCG ((((((((...((((((((+))))))))...))))))))”, with 45.5 °C. Turning to “CGACGTGCCGAATGTGCTG+CAGCACATACCGCACGTCG ((((((((.(.((((((((+)))))))).).))))))))”, the Tm turned out to be 49.5 °C.

For “CGACGTGCACCATGTGCTG+CAGCACATTAAGCACGTCG ((((((((...((((((((+))))))))...))))))))”, the Tm is 43.9 °C. Take “CGACGTGCAGAATGTGCTG+CAGCACATGGAGCACGTCG ((((((((...((((((((+))))))))...))))))))”: the Tm stood at 55.6 °C.

As to “CGACGTGCCCGATGTGCTG+CAGCACATCTGGCACGTCG (((((((((.(((((((((+))))))))).)))))))))”, the midpoint of thermal melting (Tm) was found to be 59.1 °C. In the case of “CGACGTGCATTATGTGCTG+CAGCACATCAAGCACGTCG ((((((((.(.((((((((+)))))))).).))))))))” it was 48.1 °C.

“CGACGTGCTCCATGTGCTG+CAGCACATCTAGCACGTCG (((((((((..((((((((+))))))))..)))))))))”: the melting temperature (Tm) was found to be 49.5 °C. Consider “CGACGTGCGCAATGTGCTG+CAGCACATGGTGCACGTCG ((((((((.(.((((((((+)))))))).).))))))))”, for which the midpoint of thermal melting (Tm) stood at 54.3 °C. In the case of “CGACGTGCGAAATGTGCTG+CAGCACATTGGGCACGTCG ((((((((..(((((((((+)))))))))..))))))))” it was 54.5 °C. In the case of “CGACGTGCACGATGTGCTG+CAGCACATTACGCACGTCG ((((((((...((((((((+))))))))...))))))))” it was 46 °C; in that of “CGACGTGCTTAATGTGCTG+CAGCACATTGAGCACGTCG (((((((((.(((((((((+))))))))).)))))))))”, 56.9 °C. Then “CGACGTGCTCCATGTGCTG+CAGCACATTGAGCACGTCG ((((((((((.((((((((+)))))))).))))))))))”, with 56.5 °C; and “CGACGTGCACCATGTGCTG+CAGCACATGATGCACGTCG (((((((((.(((((((((+))))))))).)))))))))”, with 56.5 °C.

Regarding “CGACGTGCCGAATGTGCTG+CAGCACATTCGGCACGTCG (((((((((((((((((((+)))))))))))))))))))”, the Tm was determined as 66.5 °C.

The record behind these values is the array DNA melting data of Ke et al..
